The values below come from US10689452 (UNIVERSIT T STUTTGART, dated 2020).

As usually defined, the EC50 is the midpoint of the concentration-response curve.

The target in assay [1] is T1, human TNFR1-Fc fusion protein (human, UniProt P19438 29-211).
T1 construct: range 29-211; Made in stably transfected HEK293 cells; coated on ELISA plates or immobilised on QCM chips; also called huTNFR1-Fc; human TNFR-Fc; not shown: Fc part from vector pSecTagL1-Fc
T1 sequence (looked up): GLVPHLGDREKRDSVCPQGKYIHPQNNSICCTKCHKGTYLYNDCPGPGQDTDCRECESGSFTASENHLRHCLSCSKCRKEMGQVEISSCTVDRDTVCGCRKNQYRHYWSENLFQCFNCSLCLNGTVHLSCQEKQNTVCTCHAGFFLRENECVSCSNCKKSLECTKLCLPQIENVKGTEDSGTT
In words: ELISA, human TNFR1-Fc.

The target of assay [2] is T2, human TNFR1 on cells (HT1080, HeLa, Kym-1) (human, UniProt P19438 30-455).
T2 sequence (looked up): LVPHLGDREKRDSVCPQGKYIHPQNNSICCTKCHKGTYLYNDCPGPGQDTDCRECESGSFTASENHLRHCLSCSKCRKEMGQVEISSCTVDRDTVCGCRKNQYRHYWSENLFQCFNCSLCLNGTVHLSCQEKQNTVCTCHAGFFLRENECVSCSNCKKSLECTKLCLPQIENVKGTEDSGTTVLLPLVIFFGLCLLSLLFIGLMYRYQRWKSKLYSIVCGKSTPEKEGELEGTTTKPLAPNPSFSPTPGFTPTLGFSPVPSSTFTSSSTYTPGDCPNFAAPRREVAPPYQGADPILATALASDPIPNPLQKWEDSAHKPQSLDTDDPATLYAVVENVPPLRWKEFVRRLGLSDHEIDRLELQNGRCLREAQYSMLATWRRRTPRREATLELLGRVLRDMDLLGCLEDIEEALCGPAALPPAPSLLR
In words: cell-based or functional assay.

Assay [3] concerns the target T1, human TNFR1-Fc fusion protein. In words: ELISA on coated human TNFR1-Fc, scFv titrated, signal as Binding [%]. The procedure: FIG. 9. Binding to and blockade of human TNFR1.
Microtiter plates were coated with 100 µl of the indicated protein (1 µg/ml in PBS, see Table 3.3) and incubated at 4° C. over night. The residual binding sites were blocked with 2% MPBS (skim milk in PBS, 200 µl per well) at room temperature for 2 hours and subsequently washed twice with PBS. 100 µl of the samples diluted in 2% MPBS were incubated at room temperature for 1 hour prior to the last incubation step with 100 µl of the HRP conjugated detection antibodies in 2% MPBS. In the case of competition experiments, both analyzed protein samples were prepared individually (either titrated or diluted to a single concentration) and mixed before they were applied to the plate. Bound protein was detected with 100 µl TMB substrate solution, the HRP-reaction was stopped by the addition of 50 µl 1 M H2SO4 and the absorption at the wavelength of 450 nm was measured using the Infinite microtiter plate reader (TECAN, Maennedorf, Switzerland). Between each incubation step and in advance of the detection, the plates were washed three times with PBST and twice with PBS.
(In general: In an ELISA, binding on a coated surface is turned into a signal by an enzyme label.)

For assay [4], the target named is T2, human TNFR1 on cells (HT1080, HeLa, …). In words: cell-based or functional assay. The source holds these as a separate data set.
The target is the same in assay [5]. In words: cell-based or functional assay. The source holds these as a separate data set.
Assay [6] concerns the target T1, human TNFR1-Fc fusion protein. As to the kind of experiment: ELISA, immobilised human TNFR1-Fc.
For assay [7] the target is unchanged. As to the kind of experiment: ELISA, immobilised human TNFR1-Fc. This is another data set of the same source.

B1: scFvFRK13.7 (scFv, V domains shown)
VH: HVQLVQSGAEVKKPGSSVKVSCKASGYTFTDFYINWVRQAPGQGLEWIGEIVPSQGEAKYNDKFKARVTITADKSTSTAYMELSSLRSEDTAVYYCARWDFLDYWGQGTTVTVSS
VL: DVQMTQSPSSLSASVGDRVTITCRSSQSLLHSNGNTYLHWYQQKPGKAPKLLIYTVSNRFSGVPSRFSGSGSGTDFTLTISSLQPEDFATYYCSQSTHVPYTFGGGTKVEIK
Molecule B1 returned a 50% effective concentration (EC50) in assay [1] of 1.09 nM. Besides, the “IC50 (nM), inhibition of TNF-induced IL-8 release from HT1080 cells” value in assay [2] worked out at 284 nM.

B2: scFvFRK13.1 (scFv, V domains shown)
VH: QVQLVESGGGLVKPGGSLRLSCAASGFTFSDFYINWIRQAPGKGLEWVSEIYPYSGHAYYNEKFKARFTISRDNAKNSLYLQMNSLRAEDTAVYYCARWDFLDYWGQGTTVTVSS
VL: DIQMTQSPSSLSASVGDRVTITCRSSQSLLHSNGNTYLHWYQQKPGKAPKLLIYTVSNRFSGVPSRFSGSGSGTDFTLTISSLQPEDFATYYCSQSTHVPYTFGGGTKVEIK
Take B2: the binding result in assay [3] is recorded as “binds”.

B3: Fab13.7PEG (Fab, V domains shown)
VH: HVQLVQSGAEVKKPGSSVKVSCKASGYTFTDFYINWVRQAPGQGLEWIGEIVPSQGEAKYNDKFKARVTITADKSTSTAYMELSSLRSEDTAVYYCARWDFLDYWGQGTTVTVSS
VL: DVQMTQSPSSLSASVGDRVTITCRSSQSLLHSNGNTYLHWYQQKPGKAPKLLIYTVSNRFSGVPSRFSGSGSGTDFTLTISSLQPEDFATYYCSQSTHVPYTFGGGTKVEIKR
modifications: PEG (printed 'PEG400.000' in paragraph 589; methoxy-PEG 40 kDa maleimide in paragraph 649) conjugated to the newly introduced cysteine of the C-terminal ...DKTHTCAA (SEQ ID 34)
notes: also called PEGylated Fab13.7'; PEGylated derivative of Fab13.7
Turning to B3, the “fold higher IC50 (IL-8 release inhibition) compared to Fab13.7” value in assay [4] was determined as 4.9 fold. Besides, in assay [5], the “IL-8 Inhibition IC50 [nM] (HT1080 cells, 0.1 nM soluble TNF)” value (“IL-8 Inhibition IC50 [nM]” for short) came out at 98.2 nM. Also, the midpoint of the response in assay [6], the EC50, lay at 5 nM. Also, the “fold increased EC50 compared to unmodified Fab13.7” value in assay [7] was 2.6 fold.

B4: scFvFRK13.5 (scFv, V domains shown)
VH: HVQLVQSGAEVKKPGSSVKVSCKASGYTFTDFYINWVRQAPGQGLEWIGEIVPSQGEAKYNDKFKARVTITADKSTSTAYMELSSLRSEDTAVYYCARWDFLDYWGQGTTVTVSS
VL: DIQMTQSPSSLSASVGDRVTITCRSSQSLLHSNGNTYLHWYQQKPGKAPKLLIYTVSNRFSGVPSRFSGSGSGTDFTLTISSLQPEDFATYYCSQSTHVPYTFGGGTKVEIK
notes: also called scFvFKR13.5
On to B4, for which, in assay [1], the midpoint of the response, the EC50, lay at 1.06 nM. The “IC50 (nM), inhibition of TNF-induced IL-8 release from HT1080 cells” value in assay [2] worked out at 367 nM.

B5: scFvFRK13.4 (scFv, V domains shown)
VH: QVQLVESGGGLVKPGGSLRLSCAASGFTFSDFYINWIRQAPGKGLEWVSEIYPYSGHAYYNEKFKARFTISADNAKNSLYLQMNSLRAEDTAVYYCARWDFLDYWGQGTTVTVSS
VL: DIQMTQSPSSLSASVGDRVTITCRSSQSLLHSNGNTYLHWYQQKPGKAPKLLIYTVSNRFSGVPSRFSGSGSGTDFTLTISSLQPEDFATYYCSQSTHVPYTFGGGTKVEIK
With B5, the binding result in assay [3] is “binds”.

B6: scFvFRK13.3 (scFv, V domains shown)
VH: QVQLVESGGGLVKPGGSLRLSCAASGFTFSDFYINWIRQAPGKGLEWVSEIYPYSGHAYYNEKFKARFTISRDNAKNSLYLQMNSLRAEDTAVYYCARWDFLDYWGQGTTVTVSS
VL: DVQMTQSPSSLSASVGDRVTITCRSSQSLLHSNGNTYLHWYQQKPGKAPKLLIYTVSNRFSGVPSRFSGSGSGTDFTLTISSLQPEDFATYYCSQSTHVPYTFGGGTKVEIK
With B6, the binding result in assay [3] was “binds”.

B7: scFvFRK13.8 (scFv, V domains shown)
VH: QVQLVESGGGLVKPGGSLRLSCAASGFTFSDFYINWIRQAPGKGLEWVSEIYPYSGHAYYNEKFKARFTISADNAKNSLYLQMNSLRAEDTAVYYCARWDFLDYWGQGTTVTVSS
VL: DIVMTQSPLSLPVTPGEPASISCRSSQSLLHSNGNTYLHWYLQKPGQSPQLLIYTVSNRFSGVPDRFSGSGSGTDFTLKISRVEAEDVGVYYCSQGTHVPYTFGGGTKVEIK
In the case of B7, in assay [3], the binding result is “binds”.

B8: Fv13.7-Fckih0DS (Fc fusion)
chain 1: HVQLVQSGAEVKKPGSSVKVSCKASGYTFTDFYINWVRQAPGQGLEWIGEIVPSQGEAKYNDKFKARVTITADKSTSTAYMELSSLRSEDTAVYYCARWDFLDYWGQGTTVTVSSGTDKTHTSPPSPAPPVAGPSVFLFPPKPKDTLMISRTPEVTCVVVDVSHEDPEVKFNWYVDGVEVHNAKTKPREEQYNSTYRVVSVLTVLHQDWLNGKEYKCKVSNKGLPSSIEKTISKAKGQPREPQVYTLPPSRDELTKNQVSLSCAVKGFYPSDIAVEWESNGQPENNYKTTPPVLDSDGSFFLVSKLTVDKSRWQQGNVFSCSVMHEALHNHYTQKSLSLSPGK
chain 2: DVQMTQSPSSLSASVGDRVTITCRSSQSLLHSNGNTYLHWYQQKPGKAPKLLIYTVSNRFSGVPSRFSGSGSGTDFTLTISSLQPEDFATYYCSQSTHVPYTFGGGTKVEIKGTDKTHTSPPSPAPPVAGPSVFLFPPKPKDTLMISRTPEVTCVVVDVSHEDPEVKFNWYVDGVEVHNAKTKPREEQYNSTYRVVSVLTVLHQDWLNGKEYKCKVSNKGLPSSIEKTISKAKGQPREPQVYTLPPSRDELTKNQVSLWCLVKGFYPSDIAVEWESNGQPENNYKTTPPVLDSDGSFFLYSKLTVDKSRWQQGNVFSCSVMHEALHNHYTQKSLSLSPGK
notes: also called monovalent Fv13.7-Fc fusion protein
For B8, the “IL-8 Inhibition IC50 [nM]” value in assay [5] was found to be 30.7 nM. Further, the EC50 in assay [6] is 0.3 nM.

B9: Fab13.7-Fckih0DS (Fc fusion)
chain 1: HVQLVQSGAEVKKPGSSVKVSCKASGYTFTDFYINWVRQAPGQGLEWIGEIVPSQGEAKYNDKFKARVTITADKSTSTAYMELSSLRSEDTAVYYCARWDFLDYWGQGTTVTVSSASTKGPSVFPLAPSSKSTSGGTAALGCLVKDYFPEPVTVSWNSGALTSGVHTFPAVLQSSGLYSLSSVVTVPSSSLGTQTYICNVNHKPSNTKVDKKVEPKSCGTDKTHTSPPSPAPPVAGPSVFLFPPKPKDTLMISRTPEVTCVVVDVSHEDPEVKFNWYVDGVEVHNAKTKPREEQYNSTYRVVSVLTVLHQDWLNGKEYKCKVSNKGLPSSIEKTISKAKGQPREPQVYTLPPSRDELTKNQVSLSCAVKGFYPSDIAVEWESNGQPENNYKTTPPVLDSDGSFFLVSKLTVDKSRWQQGNVFSCSVMHEALHNHYTQKSLSLSPGK
chain 2: DVQMTQSPSSLSASVGDRVTITCRSSQSLLHSNGNTYLHWYQQKPGKAPKLLIYTVSNRFSGVPSRFSGSGSGTDFTLTISSLQPEDFATYYCSQSTHVPYTFGGGTKVEIKRTVAAPSVFIFPPSDEQLKSGTASVVCLLNNFYPREAKVQWKVDNALQSGNSQESVTEQDSKDSTYSLSSTLTLSKADYEKHKVYACEVTHQGLSSPVTKSFNRGECGTDKTHTSPPSPAPPVAGPSVFLFPPKPKDTLMISRTPEVTCVVVDVSHEDPEVKFNWYVDGVEVHNAKTKPREEQYNSTYRVVSVLTVLHQDWLNGKEYKCKVSNKGLPSSIEKTISKAKGQPREPQVYTLPPSRDELTKNQVSLWCLVKGFYPSDIAVEWESNGQPENNYKTTPPVLDSDGSFFLYSKLTVDKSRWQQGNVFSCSVMHEALHNHYTQKSLSLSPGK
notes: knobs-into-holes heterodimer, FcgammaR-silenced, no hinge disulfides; also called monovalent Fab13.7-Fc fusion protein
Turning to B9, the “fold higher IC50 (IL-8 release inhibition) compared to Fab13.7” value in assay [4] came to 2.3 fold. Besides, the “IL-8 Inhibition IC50 [nM]” value in assay [5] came out at 61.2 nM. This molecule also yielded an EC50 in assay [6] of 0.5 nM.
